According to the nanobody polyreactivity screen of Harvey et al. (2022):

experiment: yeast display, Sf9 membrane polyspecificity reagent, FACS + sequencing; frameworks hold sequencing errors
Procedure, shortened: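 After 36–48 hours of galactose induction, yeast (Saccharomyces cerevisiae BJ5465) displaying a synthetic nanobody library were stained at 4 °C for 1 hour with 10% biotinylated, detergent-solubilized Sf9 membrane reagent. Streptavidin microbeads enriched the stained cells before FACS sorting into low and high (top ~1%) gates on anti-HA and streptavidin fluorescence. Each clone's polyreactivity label reflects its gate of origin.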

Row | Sequence | polyreactivity (PSR sort gate)
1 | QVQLVESGGGLVQAGGSLRLSCAASGLTFYTYPMGWYRQAPGKERELVAAISSSTGSTYYADSVKGRFTISRDNAKNTVYLQMNSLKPEDSAVYYCAAESYWGVNYWGQGTQVTVSS | high polyreactivity
2 | QVQLVESGGGLVQAGGSLPLSCAASGSIFDKYTMGWYRQAPGKERELVAAISRDSGSTYYADSVKGRFTISRDNAKNTVYLQMNSLKPEDTAVYYCAARLGYYGYDYWGQGTQVTVSS | low polyreactivity
3 | QVQLVESGGGLVQAGGSLRLSCAASGSIFKANAMGWYRQAPGKESELVATITSSGTRTYYADSVKGRFTISRDNAKNTVYLQMNSLKPEDTAVYYCNARAYPYQRGRYGYWGQGTQVTVSS | high polyreactivity
4 | QVQLVESGGGLVQAGGSLRLSCAASGFIFWRYAMGWYRQAPGKERELVATITSSGGTTHYADSVKGRFTISRDNAKNTVYLQMNSLKPEDTAVYYCATRKGVGSLYYSRNYWGQGTQVTVSS | high polyreactivity
5 | QVQLVQSGGGLVQAGGSLRLSCAASGRTIWANAMGWYRQAPGKESELVAAITTSGGSTNYADSVKGRFTISRDNAKNTVYLQMNSLKPEDTAVYYCNADPTYHVVNGVGYWGQGTQVTVSS | low polyreactivity
6 | QVQLVESGGGLVQAGGSLRLSCAASGRIFYFNAMGWYRQAPGKEWELVAVINSSGSTDYADSVKGRFTISRDNAKNTVYLQMNSLKPEDTAVYYCAAEVTPSGYGYWGQGTQVTVSS | low polyreactivity
7 | QVQLVETGGGLVQAGGSLRLSCADSGSICEQYTMGWYRQAPGKERELVAGSSSGGITNYADSVKGRFTISRDNAKNTVYLQMNSLKPEDTAVYYCAADNWYLAEYDYWGEGTQVTVSS | low polyreactivity
8 | QVQLVESGGGLVQAGGSLRLSCAASGRTFTSNAMGWYRQAPGKERELVAAITRGGSTYYADSVKGRFTISRDNAKITVYLQMNSLKPEDTAVYYCAAAYGGRLRYTAGYYWGQGTQVTVSS | high polyreactivity
9 | QVQLVESGGGLVQAGGSLRLSWAAAGFIFYYNAMGRYRQAPGKERELVAAIDESGGSTYYADSVKGRFTISRDNATNTVYLQLNSLKPEDSAVYYCDTDDTWSISYGWYWFTYEYWGQGTQVTVSS | low polyreactivity
10 | QVQLVESGGGLVQAGGSLRLSCAASGFTFGDYAMGRYRPEPGKERELVAAISSGGNTNYADSVKGRFTISRDNAKHTVYLQMNRLKPEDTAVNNCAPRRQSKGYKLNYWGHGTQVTVSS | high polyreactivity
11 | QVQLVESGGGLVQAGGSLRLSCAASGSIFYRYAMGWYRPAPGKERELVAAISSTGSTYYADSVKGRFTISRDNAKNTVYLQMNSLKPEDTAVYYCAARQGFRSYRRYDYWGQGTQVTVSS | high polyreactivity
12 | QVQLVESGGGLVQAGGSLRLSCAASGFTFEGYAMGWYRQAPGKERELVASISSGGGTNYADSVKGRFTISRDNAKNTVYLQMNSLKPEDTAVYYCAARAYPYFWTGQKLSRFGYWGQGTQVTVSS | high polyreactivity
13 | QVHLVESGGGLVQAGGSLRLSCAASGYRNAMGWYRQAPGKERELVAAISSGGSTYADSVKGRFTISRDNAKNTVYLQMNSLKPEDTAVYYCAAGPVPTYDYGNFDYWGQGTQVTVSS | low polyreactivity
14 | QVQLVESGGGLVQAGGSLRLSCAASGSTFVGYAMGWYRPAPGKDRELVADIDSIGGSTYYADSVKGRFTISRDNAKNTVYVQMNSPKPEDTAVYYCAKTWYPWSRSGYYRRYDSWGQGTQVTVSS | low polyreactivity
15 | QVQLVESGRGLVQAGGSLRLSCAASGSTRRYVMGWYRQAPGKERELVAVISRGGSTYYADSVKGRFTISRDNAKNSVYLQMNSLKPEDTAVYYCNGQPVIPRGGDYWGQATQVTVSS | high polyreactivity
16 | QVQHVESGGVLVQAGGSLRLSCAASGSIFVIYAMGWYRQAPGQEWELVAAINRGSTNYADSVKGRFTISRDNAKNTVYLQMNSLKPEDTAVYYCAAYGRYGFGRVERYDYWGLGTQVTVSS | high polyreactivity
17 | QVQLVESGGGVVQAGGSLRLSCAASGRTFSYYAMGWYRQSPGKERELVATISYSTGNTNYADSVKGRFTISRDNAKNTVYLQMNSLKPEDTAVYYCAADFSPFVGETYWKYDYWGQGTQVTVSS | low polyreactivity
